Laboratory results reported in the DeepSol protein solubility set.

Experiment: soluble on expression in E. coli; label from the status in PepcDB or PDB records

| Sequence | soluble on expression in E. coli |
| --- | --- |
| MATCLVEFAKSPPVFSPGEKVTGNVKMTIPDDEFKARKVRMEMIGKAYTYWEGNVRNNHTKIKNGDIARVRHNCADHKGKIVYCRFETIVWKSDGAKNDMPSGPHIFPFSFQLPHWAPPSFEGDLGFIRYFIKVEIDRPWKFDDKFITCLTVLPNIDLRLIPNSQVPSKKHVCEEFGAVLWKNGLVRMELRLPKQGFVCGENIPVTMIVDNKTSKSFKKISLRLVQRVTYTGFRDGFVNSHSQPCIGNEKEKITYATRLNAQTRVEERQISETNIDIKIDKNEKQEVEKPIPLPPLPPSTKTCEIIDVEYFLKVKMSTSGALKSAVKLELAFIIGTMPIDPERKYEYKKSVFGFAATSLKNRDVQKFAPLYPVFKFDE | not soluble |
| MSQLVYFSSSSENTQRFIERLGLPAVRIPLNERERIQVDEPYILIVPSYGGGGTAGAVPRQVIRFLNDEHNRALLRGVIASGNRNFGEAYGRAGDVIARKCGVPWLYRFELMGTQSDIENVRKGVTEFWQRQPQNA | soluble |
| MRKLKMMLFGASLIMVAGCSSKENALCHPQPKPPAPPAWAMMPPSNSLQLLDETFSVSGTESSETRQHLEHHHHHH | not soluble |
| MTYMVSILLVSPRPGHDVATAERNDVLRATGLAPEQLEQVLIDDVEKHLPDFSRFDGIIVGGSPLNISNETYSDWQKHVHTELSRIVYSAIPSFFICYGNSFLVDLTGGTVGRTHPEDSGATIVSLTADGLTDRITRDLPTTFTSLTGHTENAICLGDSTVLLATGDTCPIQMIRANETTWACQFHAEMDAQAMKTRMDFYKDYGYFSPEDYDAIVSSLPSIDTTYSNRVLRNFIEVCEGKR | not soluble |
| MVNQLIEPYGGTLVNLIDPEKREALKHEALSLPSLDLDWQQQCELEMLMTGAYSPLTGFMTRAQCARVESAQQLDDGSFWPSPITLTSRDRALADRRPGERLALRDGEGYMLAILTLSDVWKDGERWHLAGEVEGAALPPHPDFVSLRATPAELRALFVRRGWRRIIAWQARQPMHRAQYEFCLKSAIENEANLLLHPQVGGDITEAPAYFGLVRSFLAIRDRFPAATTQLSLLPAPPPEASGRALLLRAIVARNFGCSLLIAGGEHQPDGGDCRRGEDLTQNRVDPSVAERAEKIGVRLIAYPRMVYVEDRAEHLPEAEAPQGARLLTLSGEEFQRRMRAGLKIPEWYSFPEVLAELHRQTPPRERQGFTVFFTGLSGAGKSTLARALAARLMEMGGRCVTLLDGDIVRRHLSSELGFSKAHRDVNVRRIGFVASEITKNRGIAICAPIAPYRQTRRDVRAMIEAVGGFVEIHVATPIETCESRDRKGLYAKARAGLIPEFTGVSDPYEVPETPELAIDTTGLAIDEAVQQILLKLEHEGYLRLEHHHHHH | soluble |
| MSLGFKEYYRAFPTYTKIESKEYKGRVETLGPILIKYMNKNRGKVLDLACGVGGFSFFLEDLGFDVVGLDNNPEMIEAAKRYAEKRSSKVNFVVGDAKNLPFENNSFDYVIFIDSIFHFTPSELNQVFKEVKRVIKPEGRFLIYFTDLRELLPNLKERLVIGEKYWVNRITTDTSERIATIEFKSEDDEFRVEFNIWGKTGVELLAKLYFTKEAEEKVGGYSYLIVYNPKEGHHHHHH | soluble |
| MAHHHHHHMYEVYYLNEHDEFEKKKKKNEEIQSSLILKNHAISSEKKSKLVKHNIYEGGYTIWECTWDMLKFFHKEGFDFNNKQVLELGCGHGLVGIKVLLDNGNVVFQELNKEVINDVLLPNIKKNLKMKLKKKKLKENKHYMKINNDKITCYVINKPWHKLNSKLQKKKLNCFDFILGNEILYRKENYYHILKILKKNLKKGGKAYFGSKSYYFGFEDGTGSNSFVTYVNNNEHFNFVARIIQTTTGKSVYSKDIIEVTFSPNND | not soluble |
| MSDLVSYHLDDGVATLTLNNGKVNAISPDVIIAFNAALDQAEKDRAIVIVTGQPGILSGGYDLKVMTSSAEAAINLVAQGSTLARRMLSHPFPIIVACPGHAVAKGAFLLLSADYRIGVAGPFSIGLNEVQIGMTMHHAGIELARDRLRKSAFNRSVINAEMFDPEGAMAAGFLDKVVSVEELQGAALAVAAQLKKINMNAHKKTKLKVRKGLLDTLDAAIEQDRQHML | soluble |
| MGSDKIHHHHHHMKRSIEDTPVVFLGAGNLATNLAKALYRKGFRIMQVYSRTEESARTLANEVEAEYITDLKDVSNEARLYIISLKDAAFVELLPQITDGKQHALLVHTAGSIPMNIWEGHAERYGVFYPMQTFSKQREVDFREVPFFIEAKRPEDTELLKAVAGTLSDKVYEADSEQRRSLHLAAVFTCNFTNHMYALAAELLEKYHLPFDVMLPLIDETARKVHELAPRDAQTGPAVRYDENVMNKHLSMLADSQALQEIYKLMSKSIHEHHQL | not soluble |
| MGSDKIHHHHHHMTRVEELLSQIKNLKTEKNAIILGHNYMEYSVQLVSDFTGDSYDLAVKAMKTNAKIILFAGVYFMAEQASALNPNKKVLSPDPNAGCTLSDSLDVKTLQEYKEKYPNAPVVLYINTSIYAKALADYIVTSSTAVKVVQKLNADTILFGPDANLANYVQQKVPNKKIIKVPPNGRCIVHANYTKQLVELARKKYPNALLMAHPEAPLEILESADFVGSTNQMIQFSKENKNEEFIVATEIGMINALKIKNPSKKFYPLVTTEACACARCPYMNMINLEKVKRSLEEEVYEVKVPEDIAERVKRAFENTMKLL | not soluble |
| MGSDKIHHHHHHMNNIGLILEGGGMRGVYTAGVLDFFMDKNLYFPYVSGVSMGACNAASYVSKQRGRTKSVTVDLADDSRYISLKNFIKYKSIFGMDFIFDEVPNKLFPFDFNTFSNSTQKLVIGTTDCLTGKEVYFSHSSSNDILDIIRASSSLPFISEPVKINNYTLMDGGIADPIPIKRSIEDGNAKNVLILTREADYIKNPFKHNWILSKKYSQFKGLCKAILNRHKLYNETLKYISHLENTGKVFIIRPTFSPKVKRIEKNKSRLNALYLEGYKDAEKNYDKLLQFLNSN | not soluble |
| MLCCPDPRRRGQHNNRRRNAMPKLHESRIHDLRPTQLTVGMIEVQAKKTHLAAMAPADQQAFMQAHPIPAVLGPGGQLYITDHHHLGRAALDAGVITGYFMVEADLSQHSLDDFWKAMDQNLWVHPLDEHGVRHYYASIPKHLEKLVDDPYRSLAGYVRDAGGYDKTPTAFAEFVWADFFRRSIPIEDLLADFQAAVHAALPLAKSKFAKALPGYNGKLEHHHHHH | not soluble |
| MDWIESVKSYIKVVEEGSFNAAAYQLNTSGSAISKRINWLEERVGVQLLTRTTRSVHQTEAGLLFYQRARLQLDQWQHLVDETRAINQTPAGLLKIGATLAVGSKFIIKYLDEFLATYPKIKVQLITTLPGQVPEHNVDVFISRELEQLNTFSYKATHLFEHHSGFFASKDYLDKYGTPNNINELKAHNMLIWGERPIKEIKLTNNKRVTLRGNFATTNPEALFHAAKRGMGILLTSQQMVIDDLQSGALVPILPEITTDHTRVNAYYPTLDYEHTRTQLFIKYLKTKLS | not soluble |
| MQQRRPVRRALLSVSDKAGIVEFAQALSARGVELLSTGGTARLLAEKGLPVTEVSDYTGFPEMMDGRVKTLHPKVHGGILGRRGQDDAIMEEHQIQPIDMVVVNLYPFAQTVAREGCSLEDAVENIDIGGPTMVRSAAKNHKDVAIVVKSSDYDAIIKEMDDNEGSLTLATRFDLAIKAFEHTAAYDSMIANYFGSMVPAYHGESKEAAGRFPRTLNLNFIKKLDMRYGENSHQQAAFYIEENVKEASVATATQVQGKALSYNNIADTDAALECVKEFAEPACVIVKHANPCGVAIGNSILDAYDRAYKTDPTSAFGGIIAFNRELDAETAQAIISRQFVEVIIAPSASEEALKITAAKQNVRVLTCGQWGERVPGLDFKRVNGGLLVQDRDLGMVGAEELRVVTKRQPSEQELRDALFCWKVAKFVKSNAIVYAKNNMTIGIGAGQMSRVYSAKIAGIKAADEGLEVKGSSMASDAFFPFRDGIDAAAAAGVTCVIQPGGSIRDDEVIAAADEHGIAMLFTDMRHFRH | soluble |
| MGSDKIHHHHHHMAVLITRPGERGERLVEMLNKAGIMALHLPLISIIAGQELNRLPNKLQQLNCGDYVVAVSKNAVEYAQKTLSAVGFCWRSDLYYFTVGQRTAEYFASQIENSVYYPVEQESSEGLLNLPQMQDLQARNILILRANGGREFFTEQAILRGAKVETLECYQRMPIEYNKLEKISLCQRIGVDTIVVTSQEMLNYLVKLVPTNETGWLFSCRLVTVSQRIAALAKSVGWTNIVVADKADNLSLFLALQQ | not soluble |
| MSLNTAMAINKPKKVNKVMNYKSCFDIIGPIMIGPSSSHTAGALAIGLAARKLFGGTPEKIVIKYYESFADTHKGHGTDFAIIGGILGLAADDANVTQSIELAEEQGIEIQFLEMSEESPVKHANTACVTLSDATHEIHLTGISVGGGTIEVKYIELDGFNVQLHGPLPILLVINQEEQAMQAFKDTLQKNNIQVNAVSRYVEGNQILFIFDLDSAPISSVKEQLFSLDDTSKIILLEGGSHHHHHH | soluble |
| GPGSMNFVPLYRSILKGIHTAKQHPYHLQDIRFILSYPLVKPVYYATKPNSELKQLEPLQGIDTPLLVRTCLEDLRRAFMSVPSKDMSVAQQFVYMRELGWLKCRLENIASESTDAILKEARVVASEVTDDDFLDDQIIVRQGRPNNKELQCVQTGNNGSEMGDCGYGVASAGAIGLRYEMFILQNVAPLPLVKEFLSSFSQNTEAAAAAATSNQKLQEFARRYVPRTVVCQNEDLTLTITVNAFDAALTRKSTEENNPFARVHRYFMIRFDLSPSDPLVLGVDVVNSYFLRLDAGSAELVEDIGYLHAADVWKLSQELRVKGSGSSTDSDDTKDNGCVDGSVSSKEHAAEGNVNCMDHNEHEHNPTSHFELSFINPSDGPTIMKGQLYYTLRTKSSASASKMNVGVISFGHILLFNDE | not soluble |
| MKQSKIIVAGIGPGSEQDITPAVLAAVREADVVVGYKYYFRFIRDFVRPDAECIDTGMKRERARAEQAFEYAEQGKTVCVISSGDAGIYGMTPLIYEMKRERQSNVEIIALPGI | not soluble |
| MININRYTLSNGLRVIHNEDNTTQMVALNLLYDVGARDEDPDHTGFAHLFEHLMFGGSIHVPDYDTPVQNAGGENNAWTNNDITNYYITLPRQNVETGFWLESDRMLSLDFNPRSLEVQRQVVIEEFKQRNLNQPYGDASHLLRALAYKVHPYQWPTIGKEISHIANATLEEVKAFFFKYYAPDNAILAVTGHITFEETVTLAEKWFGPIPRRNVAP | not soluble |
| DWNNQSIVKTGERQHGIHIQGSDPGGVRTASGTTIKVSGRQAQGILLENPAAELQFRNGSVTSSGQLSDDGIRRFLGTVTVKAGKLVADHATLANVGDTWDDDGIALYVAGEQAQASIADSTLQGAGGVQIERGANVTVQRSAIVDGGLHIGALQSLQPEDLPPSRVVLRDTNVTAVPASGAPAAVSVLGASELTLDGGHITGGRAAGVAAMQGAVVHLQRATIRRGDALAGGAVPGGAVPGGAVPGGFGPGGFGPVLDGWYGVDVSGSSVELAQSIVEAPELGAAIRVGRGARVTVPGGSLSAPHGNVIETGGARRFAPQAAPLSITLQAGAHAQGKALLYRVLPEPVKLTLTGGADAQGDIVATELPSIPGTSIGPLDVALASQARWTGATRAVDSLSIDNATWVMTDNSNVGALRLASDGSVDFQQPAEAGRFKVLTVNTLAGSGLFRMNVFADLGLSDKLVVMQDASGQHRLWVRNSGSEPASANTLLLVQTPLGSAATFTLANKDGKVDIGTYRYRLAANGNGQWSLVGAKAPP | soluble |
